Measurements: the nanobody polyreactivity screen of Harvey et al. (2022)

experiment: yeast display, Sf9 membrane polyspecificity reagent, FACS + sequencing; frameworks hold sequencing errors
Outline: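 Galactose-induced (36–48 hours) yeast carrying a synthetic nanobody display library were exposed to 10% biotinylated, detergent-solubilized Sf9 membrane reagent at 4 °C for 1 hour. FACS followed streptavidin microbead enrichment, using low and high (top ~1%) gates for expression (anti-HA) and reagent binding (streptavidin). Colony PCR, MiSeq 2 × 250 sequencing and CDR-length filtering followed. Labels for polyreactivity reflect the gate of origin.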

| Sequence | polyreactivity (PSR sort gate) |
| --- | --- |
| QVQLVESGGGLVQAGGSLRLSCAASGSTFDSYAMGWYRQAPGKERELVAAISSGGSTNYADSVKGRFTISRDNAKNTVYLQMNSLKPEDTAVYYCAAYGGHIWWLYRHYGYDYWGQGTQVTVSS | low polyreactivity |
| QVQLVESGGGLVQAGGSLRLSCAASGYIYRYNAMGWYRQAPGKEREFVASISQRGGSTYYADSVKGRFTISRDNAKNTVYLQMNSLKPEDTAVYYCAARLGYYSYEYNYWGQGTQVTVSS | high polyreactivity |
| QVQLVESGGCLVQAGGSLRLSCAASGSISTNYAMGWYRQAPGKERELVAAISDSSGSTYYADSVKGRFTISRDNAKNTVYLQMNSLKPVDTAVYYCNADSQGGRDVHYDYEYYYWGQGTQVTVSS | low polyreactivity |
| QVQLVESGGGLVQAGGSLRLSCAASGSIFSAYAMGWYRQAPGKERELVAAISDSGDSTYYADSVKGRFTISRDNAKNTVYLQMNSLKPEDTAVYYCAAESPKWGQGTQVTVSS | low polyreactivity |
| QVQLVESGGGLVQAGGSLRLCCAASGIIFQRNDMGWYRQAPGKERELVANIRDGGITYADSVKGRFTISRDNAKNTVYLQMNSLKPEDTAVYYCARDDTSPGYGDQSSIAAYYYWGQGTQVTVSS | low polyreactivity |
| QVQLVESGGGLVQAGGSLRLSCAASGFTFSSYAMGWYRQAPGKERELVAAISSSGSRTYYADSVKGRFTISRDNAKNTVYLQMNSLKPEDTAVYYCAARPGDGGYYYWGQGTQVTVSS | high polyreactivity |
| QVHLVESGGGLVQAGGSLRLTCAASGSIFPYNAMGWYRQSPGEFVAAISYSSGSTYYADSVQGRFTISRDNAKYTVYLQMNCVIPDVTAVYYCAAGSWYPPSYVWLGRYDYWGQGTQVTVSS | low polyreactivity |
| QVQLVESGGGLVQAGGILRLSCAASGSTFYGYAMGWYRQAPGKERELVAAITRSGGSTYYADSVKGRFTISRDNAKNTVYLQMNSLKPEDTEVYYCNKYGYKGGVGYDYWGQGTQVTVSS | high polyreactivity |
| QVQHVESGGGLVQAGGSLGLSCAASGRIFGVYAMGWYTQAPGKERELVAAIWSGGSTYYADSVKGRFTISRDNAKNTVYLQMNSLKPEDTAVYYCAADDAYSHRSLYSHNDYWGQGNQVTVSS | low polyreactivity |
| QVQLVESGGGLVQAGGSLRLSCAASGRIFALYAMGWYRQAPGKERELVASITGGTSTNYADSVKGRFTISRDNAKNTVYLQMNSLKPEDTEVYYCAARGYTTGTRNRRYNYWGQGTQVTVSS | high polyreactivity |
| QVQLVESGGGLVQAGGSLRLSCAASGRIFDGNTMGWYRQAPGKERELVAAISGGGSTDYADSVKGRFTISRDNAKNTVYLQMNSLKPEDTAVYYCAATTGPVPLKGDYWGQGTQVTVSS | low polyreactivity |
| QVQLVESGGGLVQAGGSLRLSCAASGRTFSAYAMGWYRQATGQERELVAAISRSGGSTYYADSVKGRFTISRDNAKNTVYLQMNSLKPEDTAVYYCAAKGGSGLYNWGQGTQVTVSS | high polyreactivity |
| QVQLVESGGGLVQAGGSLRLSCAASGSTFGSNAMGWYRQAPGKEREFVAAISRRGGSTYYADSVKGRFTISRDNAKNTVYLQMNSLKPEDTAVYYCAADYISLREEDYWGQGTQVTVSS | high polyreactivity |
| QVQLVESGGGLVQAGGSLRLSCAASGIFSRYAMGWYRQAPGKERELVAAISSGDSTNYADSVKGRFTISRDNAKNTVYLQMNSLKPEDTAVYYCATERSHLATGQGYYYVQTFYYWGQGTQVTVSS | low polyreactivity |
| QVQLVESGGGLVQAGGSLRLSCAASGRTFVYYTLGWYRQPPGKERELVARISAGGGITYYADSVKGRFTISRDNAKNTVYLQMNSLNREDTAVYYCAADYWFTYRRPAYEYAYWGQGTQVTVSS | high polyreactivity |
| QVQLVESGGGLVQAGGSLRLSCAASGSIFNYYVMGWYRQAPGKERELVAGIRWNGGSTYYADSVKGRFTISRDNAKNTVYLQMNSLKPEDTAVYYFAAQAWWGYYSRGPMDYWGQGTQVTVSS | low polyreactivity |
| QVQLVDSGGGLVQAGGILRLSCAASGFILSDNAMGWYRQGPGKERELVAAINSGGSTYYADSVKGRFTISRDNAMNTVYLQMNSLKPEDTAVYYCAADFSTWLRAYDYWGQGTQVTVSS | low polyreactivity |
